Values of other authors as cited in article PMC4070439.

Assays:
[1] = biological target: IL-12Rβ1 (low affinity site) (Mus musculus) (UniProt Q60837)
[2] = biological target: IL-12Rβ1 (high affinity site) (Mus musculus) (UniProt Q60837)

Kd [1]: 15 nM
Kd [2]: 0.005 nM
Substance: IL-12 p40 homodimer (from UniProt P43432)
